The assay deals with T1, purified STIL[N] (aa1-1018) (human, UniProt Q15468 1-1018).
T1 sequence (looked up): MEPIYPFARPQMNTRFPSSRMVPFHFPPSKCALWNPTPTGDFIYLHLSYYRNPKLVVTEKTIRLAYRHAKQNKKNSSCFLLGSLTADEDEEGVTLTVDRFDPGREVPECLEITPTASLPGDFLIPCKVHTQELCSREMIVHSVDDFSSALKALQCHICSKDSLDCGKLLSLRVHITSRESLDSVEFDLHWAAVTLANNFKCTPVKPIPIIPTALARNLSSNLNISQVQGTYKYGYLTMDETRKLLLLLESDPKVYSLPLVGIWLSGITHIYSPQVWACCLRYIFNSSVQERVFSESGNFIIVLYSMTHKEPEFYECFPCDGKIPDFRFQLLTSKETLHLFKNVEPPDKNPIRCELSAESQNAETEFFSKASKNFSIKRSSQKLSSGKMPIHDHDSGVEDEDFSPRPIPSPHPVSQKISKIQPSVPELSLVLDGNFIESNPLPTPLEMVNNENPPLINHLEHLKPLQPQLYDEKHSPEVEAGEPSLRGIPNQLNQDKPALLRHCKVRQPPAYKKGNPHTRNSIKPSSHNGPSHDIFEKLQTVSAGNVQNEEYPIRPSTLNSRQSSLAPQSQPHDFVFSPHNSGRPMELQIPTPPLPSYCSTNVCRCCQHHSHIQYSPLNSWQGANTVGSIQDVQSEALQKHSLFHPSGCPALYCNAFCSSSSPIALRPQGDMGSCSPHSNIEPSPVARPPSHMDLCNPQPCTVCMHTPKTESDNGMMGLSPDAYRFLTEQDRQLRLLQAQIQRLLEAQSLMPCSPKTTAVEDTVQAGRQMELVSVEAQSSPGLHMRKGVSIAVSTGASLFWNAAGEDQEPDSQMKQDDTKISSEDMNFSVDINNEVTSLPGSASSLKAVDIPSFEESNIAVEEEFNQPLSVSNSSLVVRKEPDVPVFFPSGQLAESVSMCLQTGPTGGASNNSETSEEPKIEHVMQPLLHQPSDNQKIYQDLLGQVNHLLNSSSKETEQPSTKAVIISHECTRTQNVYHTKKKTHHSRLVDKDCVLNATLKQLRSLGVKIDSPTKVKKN
Put plainly: pull-down; GST-RBM14 fragments retained on Glutathione sepharose beads, incubated with ~5 μg bacterially purified STIL[N] for 2 h at 4°C in lysis buffer; SDS-PAGE, SimplyBlue Safe stain. The note with it: both partners purified.

The values below come from paper PMC4291483 (The EMBO Journal, 2014).

B1: GST-RBM14[C] (domain or fragment, human, UniProt Q96PK6 151-669, looked up)
chain: QKKGPGLAVQSGDKTKKPGAGDTAFPGTGGFSATFDYQQAFGNSTGGFDGQARQPTPPFFGRDRSPLRRSPPRASYVAPLTAQPATYRAQPSVSLGAAYRAQPSASLGVGYRTQPMTAQAASYRAQPSVSLGAPYRGQLASPSSQSAAASSLGPYGGAQPSASALSSYGGQAAAASSLNSYGAQGSSLASYGNQPSSYGAQAASSYGVRAAASSYNTQGAASSLGSYGAQAASYGAQSAASSLAYGAQAASYNAQPSASYNAQSAPYAAQQAASYSSQPAAYVAQPATAAAYASQPAAYAAQATTPMAGSYGAQPVVQTQLNSYGAQASMGLSGSYGAQSAAAATGSYGAAAAYGAQPSATLAAPYRTQSSASLAASYAAQQHPQAAASYRGQPGNAYDGAGQPSAAYLSMSQGAVANANSTPPPYERTRLSPPRASYDDPYKKAVAMSKRYGSDRRLAELSDYRRLSESQLSFRRSPTKSSLDYRRLPDAHSDYARYSGSYNDYLRAAQMHSGYQRRM
Regarding B1, the binding result is given as “binds”.
